pKd: −log10 of the molar value.
Key:
[1] = target: FVIIIa (activated factor VIII) (UniProt P00451)
[2] = target: FVIIIa (activated factor VIII) (UniProt P00451); test: apparent Kd; 0.1 nM FVIIIa titrated with 0-5 nM FIXa, 100 µM PSPC vesicles, 5 mM CaCl2; complex read by the initial rate of FXa generation, quadratic fit
[3] = target: FVIIIa (activated factor VIII) (UniProt P00451); test: apparent Kd from FXa generation, as FIG. 1, in the absence of hirudin
[4] = target: FVIIIa (activated factor VIII) (UniProt P00451); test: apparent Kd from FXa generation, as FIG. 1, in the presence of 100 nM hirudin

Sequence of UniProt P00451 (P00451 whole entry, looked up): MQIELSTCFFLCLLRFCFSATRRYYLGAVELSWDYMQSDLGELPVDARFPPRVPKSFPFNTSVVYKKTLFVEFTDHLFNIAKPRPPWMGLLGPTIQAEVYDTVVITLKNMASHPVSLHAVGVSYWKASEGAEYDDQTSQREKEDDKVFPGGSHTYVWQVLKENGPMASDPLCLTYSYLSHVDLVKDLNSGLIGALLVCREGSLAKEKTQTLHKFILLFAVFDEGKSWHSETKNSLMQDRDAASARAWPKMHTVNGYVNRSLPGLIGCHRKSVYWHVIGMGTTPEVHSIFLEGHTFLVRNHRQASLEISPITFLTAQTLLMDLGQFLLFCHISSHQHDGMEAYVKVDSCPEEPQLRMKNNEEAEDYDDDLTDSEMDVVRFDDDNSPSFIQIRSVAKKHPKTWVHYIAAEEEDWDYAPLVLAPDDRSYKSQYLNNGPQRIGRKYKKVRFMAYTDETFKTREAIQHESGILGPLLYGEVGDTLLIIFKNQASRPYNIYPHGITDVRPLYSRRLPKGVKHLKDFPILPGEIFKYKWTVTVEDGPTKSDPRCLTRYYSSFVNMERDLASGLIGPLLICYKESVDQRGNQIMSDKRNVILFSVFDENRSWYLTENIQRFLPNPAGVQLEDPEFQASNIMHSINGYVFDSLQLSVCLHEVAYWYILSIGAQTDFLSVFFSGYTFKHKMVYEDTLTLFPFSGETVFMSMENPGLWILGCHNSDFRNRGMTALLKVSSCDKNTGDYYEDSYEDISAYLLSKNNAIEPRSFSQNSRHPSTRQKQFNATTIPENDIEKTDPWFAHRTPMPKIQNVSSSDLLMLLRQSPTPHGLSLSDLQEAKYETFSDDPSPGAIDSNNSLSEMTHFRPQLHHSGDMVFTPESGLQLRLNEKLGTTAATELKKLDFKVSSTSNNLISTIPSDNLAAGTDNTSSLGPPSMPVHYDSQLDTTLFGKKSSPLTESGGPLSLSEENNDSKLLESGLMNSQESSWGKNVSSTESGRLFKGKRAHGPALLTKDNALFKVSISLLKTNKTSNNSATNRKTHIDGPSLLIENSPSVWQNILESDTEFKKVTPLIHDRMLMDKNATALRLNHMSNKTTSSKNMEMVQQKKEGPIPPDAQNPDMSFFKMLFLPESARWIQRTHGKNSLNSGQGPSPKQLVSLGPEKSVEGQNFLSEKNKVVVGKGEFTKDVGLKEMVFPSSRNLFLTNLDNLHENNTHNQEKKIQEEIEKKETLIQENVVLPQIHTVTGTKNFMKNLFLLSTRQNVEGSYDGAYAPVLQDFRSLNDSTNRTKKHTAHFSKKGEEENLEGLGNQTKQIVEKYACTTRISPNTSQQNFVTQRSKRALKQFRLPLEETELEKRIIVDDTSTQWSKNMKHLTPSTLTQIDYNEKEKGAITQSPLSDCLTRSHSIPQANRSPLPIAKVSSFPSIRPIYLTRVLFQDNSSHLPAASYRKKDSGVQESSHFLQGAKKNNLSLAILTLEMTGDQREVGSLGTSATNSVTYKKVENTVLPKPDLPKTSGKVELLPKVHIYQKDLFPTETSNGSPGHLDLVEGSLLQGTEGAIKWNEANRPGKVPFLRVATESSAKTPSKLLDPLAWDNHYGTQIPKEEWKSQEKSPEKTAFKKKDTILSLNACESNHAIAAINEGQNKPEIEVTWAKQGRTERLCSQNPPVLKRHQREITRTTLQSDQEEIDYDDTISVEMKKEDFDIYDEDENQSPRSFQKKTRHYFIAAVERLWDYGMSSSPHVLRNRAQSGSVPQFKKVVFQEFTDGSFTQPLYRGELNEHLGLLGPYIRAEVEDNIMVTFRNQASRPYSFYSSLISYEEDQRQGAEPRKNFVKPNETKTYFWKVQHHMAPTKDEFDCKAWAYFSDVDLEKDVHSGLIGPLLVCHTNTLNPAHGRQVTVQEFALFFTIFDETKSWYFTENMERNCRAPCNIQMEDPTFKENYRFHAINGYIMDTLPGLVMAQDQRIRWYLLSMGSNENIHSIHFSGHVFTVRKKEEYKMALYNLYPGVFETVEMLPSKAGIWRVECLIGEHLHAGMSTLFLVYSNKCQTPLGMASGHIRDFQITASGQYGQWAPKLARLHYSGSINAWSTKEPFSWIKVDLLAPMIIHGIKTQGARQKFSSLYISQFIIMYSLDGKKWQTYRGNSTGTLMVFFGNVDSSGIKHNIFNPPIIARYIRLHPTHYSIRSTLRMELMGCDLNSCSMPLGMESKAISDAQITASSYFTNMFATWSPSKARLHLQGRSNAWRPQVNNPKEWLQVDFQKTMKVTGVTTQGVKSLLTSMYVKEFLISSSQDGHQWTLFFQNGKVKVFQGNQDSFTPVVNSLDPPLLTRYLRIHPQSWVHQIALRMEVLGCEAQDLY

For “R338A-FIXa (activated Factor IX with alanine at position 338)”, which “Bmax, in the absence of hirudin” value [1] is on record?
Its value is 3.39±0.12 nM FXa/min.

What about the “Bmax, in the presence of 100 nM hirudin” value [1] of the same substance?
The value was 3.38±0.19 nM FXa/min.

What about the “maximum rate of FX cleavage (Bmax of FIG. 1)” value [1] of the same substance?
Its value is 3.56±0.15 nM FXa/min.

With “plasma FIXa (activated purified normal human plasma Factor IX)” as the substance, how does the “maximum rate of FX cleavage (Bmax of FIG. 1)” value [1] read?
The value was 1.30 ± 0.10 nM/min.

“plasma FIXa (activated purified normal human plasma Factor IX) (from UniProt P00740 47-191; P00740 227-461) (enzyme)” was tested. Which pKd [2] did it give?
Its pKd is 9.00.

What does the source list for “recombinant wt-FIXa (activated recombinant wild type Factor IX)”?
Bmax, in the absence of hirudin [1]: 1.27±0.12 nM FXa/min; Bmax, in the presence of 100 nM hirudin [1]: 1.35±0.15 nM FXa/min

“recombinant wt-FIXa (activated recombinant wild type Factor IX) (from UniProt P00740 47-191; P00740 227-461) (enzyme)” was tested. Which pKd [3] did it give?
The pKd was 9.42.

What about the pKd [4] of the same substance?
The pKd was 9.07.

From patent US20020031799A1
